Measurements as given in patent publication US7754689B2, “Finger-1 peptide analogs of the TGF-β superfamily” (Wyeth LLC, priority 2006, dated 2010).
No end group written: not given here.

Biological target: T1, BMP-12 (UniProt Q7Z4P5 322-450, limits assumed)
T1 construct: also called BMP12/GDF7
T1 sequence (looked up): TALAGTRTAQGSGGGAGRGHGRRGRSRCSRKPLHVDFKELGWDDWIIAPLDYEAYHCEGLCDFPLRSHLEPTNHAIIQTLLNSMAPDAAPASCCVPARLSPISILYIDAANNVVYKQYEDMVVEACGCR
Experiment: peptide resin, filter plate; load 6: 1M CHES pH 9.7
Method: (§1) The coupled resins, plus an unconjugated resin for use as a control, were suspended in 16% ethanol, 150 mM NaCl, and 20 mM Tris buffer at pH 7.5 at a 25% v/v ratio (e.g., 25% ethanol, 75% Tris buffer). A Tecan liquid-handling robot was employed to aliquot 200 μL of each slurry into one of eight rows of a 96 well polystyrene filter plate (0.45 μm hydrophilic filters, Whatman catalog number 770-1806). Spinning at 1200 g for 3 min removed the liquid phase, leaving 50 μL of wet resin on the filters. The resins were then equilibrated with the loading buffers listed in Table 6 (K is a coefficient characterizing the strength of protein binding to a particular resin in a particular buffer). […] The resins were loaded by transferring 150 μL from the load plate to the filter plate and then incubating 20 min on a shaking platform to facilitate binding. The filter plate was spun down and the filtrate collected in a 96 well UV plate. The protein concentration in the filtrate, or flow-through, was calculated as $(A280-A320)/1.3$. The filter plate was then washed with 150 μL of 100 mM acetic acid, followed by 150 μL of 4M guanidine-HCl and 50 mM sodium acetate at pH 4.0. The protein concentration was measured in the new filtrate as described above. […] Flow-through and acetic acid elution samples from column 4 of the plate (loaded with MES pH 6) were analyzed on a gel (FIG. 14).

Binder	Flow-through K	Flow-through conc [mg/mL]
Ac-SDVGWNDWIVAPPGYHAFYSHGEK [BMP2 N-trun 1S peptide 751]	-1	0.647
Ac-SDVGWNDWIVAPPGYHAFYCHGEK [BMP2 N-trun peptide 750]	-1	0.577

Biological target: T1, BMP-12
Experiment: peptide resin, filter plate; load 4: 25 mM MES pH 6.0
Method: as §1

Binder	100 mM HAc elution K	100 mM HAc elution conc [mg/mL]	4M Gnd, 50 mM NaAc pH 4 Strip Conc [mg/ml]	Flow-through K	Flow-through conc [mg/mL]
Ac-SDVGWNDWIVAPPGYHAFYSHGEK [BMP2 N-trun 1S peptide 751]	1	0.355	0.053	38	0.035
Ac-SDVGWNDWIVAPPGYHAFYCHGEK [BMP2 N-trun peptide 750]	1	0.311	0.06	36	0.037

Biological target: T1, BMP-12
Experiment: peptide resin, filter plate; load 5: 25 mM HEPES pH 7.0
Method: as §1

Binder	100 mM HAc elution K	100 mM HAc elution conc [mg/mL]	4M Gnd, 50 mM NaAc pH 4 Strip Conc [mg/ml]	Flow-through K	Flow-through conc [mg/mL]
Ac-SDVGWNDWIVAPPGYHAFYSHGEK [BMP2 N-trun 1S peptide 751]	0	0.254	0.044	4	0.216
Ac-SDVGWNDWIVAPPGYHAFYCHGEK [BMP2 N-trun peptide 750]	0	0.187	0.046	2	0.29

Biological target: T1, BMP-12
Experiment: peptide resin, filter plate; load 3: 25 mM Na Acetate pH 5.0
Method: as §1

Binder	100 mM HAc elution K	100 mM HAc elution conc [mg/mL]	4M Gnd, 50 mM NaAc pH 4 Strip Conc [mg/ml]	Flow-through K	Flow-through conc [mg/mL]
Ac-SDVGWNDWIVAPPGYHAFYSHGEK [BMP2 N-trun 1S peptide 751]	1	0.285	0.07	9	0.124
Ac-SDVGWNDWIVAPPGYHAFYCHGEK [BMP2 N-trun peptide 750]	1	0.226	0.072	6	0.163

Biological target: T1, BMP-12
Experiment: peptide resin, filter plate; load 1: 50 mM Acetic Acid, 0.1 M NaCl, pH 2.9
Method: as §1

Binder	100 mM HAc elution K	100 mM HAc elution conc [mg/mL]	4M Gnd, 50 mM NaAc pH 4 Strip Conc [mg/ml]	Flow-through K	Flow-through conc [mg/mL]
Ac-SDVGWNDWIVAPPGYHAFYSHGEK [BMP2 N-trun 1S peptide 751]	1	0.102	0.046	1	0.349
Ac-SDVGWNDWIVAPPGYHAFYCHGEK [BMP2 N-trun peptide 750]	1	0.096	0.044	1	0.337

Biological target: T1, BMP-12
Experiment: peptide resin, filter plate; load 2: 50 mM Acetic Acid, 0.1 M NaCl, pH 4.0
Method: as §1

Binder	100 mM HAc elution K	100 mM HAc elution conc [mg/mL]	4M Gnd, 50 mM NaAc pH 4 Strip Conc [mg/ml]	Flow-through K	Flow-through conc [mg/mL]
Ac-SDVGWNDWIVAPPGYHAFYSHGEK [BMP2 N-trun 1S peptide 751]	1	0.219	0.089	6	0.156
Ac-SDVGWNDWIVAPPGYHAFYCHGEK [BMP2 N-trun peptide 750]	2	0.194	0.087	6	0.164

Biological target: T1, BMP-12
Experiment: peptide resin, filter plate; load 10: 50 mM Tris, 0.1 M NaCl, 40% MPD, pH 8.0
Method: as §1

Binder	Flow-through K	Flow-through conc [mg/mL]
Ac-SDVGWNDWIVAPPGYHAFYSHGEK [BMP2 N-trun 1S peptide 751]	0	0.435
Ac-SDVGWNDWIVAPPGYHAFYCHGEK [BMP2 N-trun peptide 750]	0	0.423

Biological target: T1, BMP-12
Experiment: peptide resin, filter plate; load 12: 50 mM Tris, 0.1 M NaCl, 20% MPD, pH 8.0
Method: as §1

Binder	Flow-through K	Flow-through conc [mg/mL]
Ac-SDVGWNDWIVAPPGYHAFYSHGEK [BMP2 N-trun 1S peptide 751]	1	0.411
Ac-SDVGWNDWIVAPPGYHAFYCHGEK [BMP2 N-trun peptide 750]	1	0.364

Biological target: T1, BMP-12
Experiment: peptide resin, filter plate; load 11: 50 mM Tris, 0.25 M NaCl, 30% MPD, pH 8.0
Method: as §1

Binder	Flow-through K	Flow-through conc [mg/mL]
Ac-SDVGWNDWIVAPPGYHAFYSHGEK [BMP2 N-trun 1S peptide 751]	0	0.425
Ac-SDVGWNDWIVAPPGYHAFYCHGEK [BMP2 N-trun peptide 750]	1	0.342
